In patent US10080776B2, “Molecular marker for cancer stem cell” (Sapporo Medical University, priority 2008, dated 2018):
Entries after “also recorded” stand apart in the source; their conditions may differ. No end group written: not given here.

Key:
[1] = target: HLA-A2402 (Homo sapiens, UniProt P04439, D101N/D140Y/D185E/E176V/E190D/F33S/G103R/G107R/I119L/I121M/I306V/K335N/L105A/L180Q/L300P/N151K/N90K/Q86E/Q94H/R106L/R138H/R89G/T104I/T345S/V100E/W191G/Y123F); assay: HLA-A24 peptide binding assay of or7c1-derived peptides; details: T2A24 cells, fluorescence of HLA-A24 antibody
Experimental: Cell line T2A24 for which HLA-A2402 had been gene-transferred to peptide transporter-deficient T2 cells was used in an assay, and experiment was carried out in the same way as in Experimental Example 16. In this Experimental Example, SL-8 was used as a negative control, and survivin-2B (SEQ ID No: 72) was used as a positive control.
The peptides below were prepared in the same way as in Experimental Example 26, and a binding assay was carried out.

[2] = test system: T2A24 cells pulsed with peptide; assay: Cr51 cytotoxicity assay: SOX2 peptide-induced CTLs against peptide-pulsed T2A24; type: cell-based, human; details: Cr51 release, 4 hours
Experimental: 50 mL of peripheral blood from HLA-A24-positive lung cancer patients who gave informed consent and HLA-A24-positive healthy subjects was centrifuged in a Ficoll-Conray density gradient, and peripheral blood mononuclear cells (PBMC) were separated and collected. Subsequently, lymphocytes of PBMC were separated into CD8-positive lymphocytes and CD8-negative lymphocytes using CD8 MACS beads.
In a 96 well plate, 200000 cells/well of CD8-negative lymphocytes and the above-mentioned HLA-A24 binding SOX2 peptide were mixed, and the mixture was allowed to stand at room temperature for 2 hours, and then subjected to a degree of 100 Gy radiation treatment. […] The peptide-specific reactivity of the induced CTLs was evaluated by a cytotoxicity assay or an ELISPOT assay.
Cr^51 was added to T2A24 cells, the cells were cultured in RPMI medium at 37° C. for 1 hour, radiolabeled, and washed with RPMI medium 4 times. […] Supernatant was then collected, and the gamma-ray dose was measured using a gamma counter.
The dose when only RPMI medium and peptide-pulsed T2A24 were cultured was defined as spontaneous release (SPR), the dose when cell lysate (2% NP40) and peptide-pulsed T2A24 were cultured was defined as maximum release (MXR), and cellular cytotoxicity was calculated as (measured value−SPR)/(MXR−SPR)×100.

[3] = test system: T2A24 pulsed with peptide; assay: 51Cr release assay with CTLs and or7c1 peptide-pulsed T2A24; type: cell-based, human; details: T2A24 pulsed with 5 μg/mL peptide, E/T ratios of 20 and 6
Experimental: PBMC was separated from whole blood (heparin added) sampled from a test subject using Lymphoprep (Nycomed). After PBMC was cultured at 37° C. for 24 hours, an experiment was carried out using non-adherent cells. In order to obtain CD8-positive cells from the non-adherent cells, CD8-positive and -negative cells were separated using a magnetic cell separation system (Miltenyi Biotech). For CD8-negative cells, 100 U/mL IL-2 and 1 μg/mL PHA-P were added to AIM-V medium (Life Technologies) to give PHA-blast. The CD8-positive cells were cultured in AIM-V medium at 37° C. and stimulated with ⅕ the amount of PHA-blast three times every 7 days (0th day, 7th day, 14th day). From the 8th day, 50 U/mL of IL-2 was added to the medium, and thereafter every 3 to 4 days the medium was exchanged, and 50 U/mL of IL-2 was added. The cells were subjected as CTLs to ELISPOT on the 21st day and a ^51Cr release assay on the 28th day.
In an assay for measuring cellular cytotoxicity, cells were labeled with radioactive ^51Cr, and cellular cytotoxicity by CTLs was measured. CTLs were used as effector cells, and T2A24, K562, Sw480, and Sw480 constitutively expressing or7c1 were used as target cells. […] Kill %=(measured release−spontaneous release)×100/(maximum release−spontaneous release)

Substance | binding to HLA-A2402 [1] | also measured
HYTViMNPQL (HYTVIMNPQL; not fully specified (residue 5); printed as HYTViMNPQL) [131(10)] | binding to HLA-A2402 was observed | 
MYLVTFTGNL (peptide fragment of OR7C1) [34(10)] | binding to HLA-A2402 was observed | 
RYLRDQQLLGI [HIV-derived peptide, reference compound] |  | cellular cytotoxicity of CTLs against peptide-pulsed T2A24 [2]: hardly any radiation due to damaged cells was detected
TYAGCLSQIF [93(10), TYAGCLSQIF] |  | cellular cytotoxicity (kill %) [3]: higher cellular cytotoxicity
MYTMVTPML (peptide fragment of OR7C1) [277(9)] | binding to HLA-A2402 was observed | 
KYRPRRKTKTL [SOX2_109 peptide, KYRPRRKTKTL] |  | cellular cytotoxicity of CTLs against peptide-pulsed T2A24 [2]: strong radiation was detected; also recorded: extremely high level of cytotoxicity
FYGTGFGVYL (peptide fragment of OR7C1) [251(10)] | binding to HLA-A2402 was observed | 
